Tests used:
[1] = target: T1, AβpE3-42 protofibrils (UniProt P05067 674-713, pyroglutamate at position 3 (N-terminal residue)); assay: SPR, protofibrils immobilised, antibody injected, 1:1 fit, apparent
T1 construct: range 3-42 (Aβ numbering); Soluble aggregates made from AβpE3-42 peptide, purified in the void peak of SEC; also called AβpE3-42 PF
Description: (§1) Single cycle kinetics was also used to measure binding of the antibodies to AβpE3-42 protofibrils. […] For binding to AβpE3-42 protofibrils, the antibodies were injected over the chip using a 3-fold dilution series in five steps starting at 700 nM, using 2 min injection of every antibody concentration and a 60 min dissociation time. Regeneration of the surface between cycles was done by injecting 30 μl 10 mM glycine-HCl pH 1.7. The binding data was fitted to a 1:1 interaction model.
(§2) In all SPR experiments, 1×HBS-EP+ (Cytiva, cat. no. BR100669) was used as running buffer and to dilute antibodies and target antigens. Experiments were performed at 25° C.

[2] = target: T2, AβpE3-40 monomer (UniProt P05067 674-711, pyroglutamate at position 3 (N-terminal residue)); assay: inhibition ELISA, antigen titrated in solution, AβpE3-40 coat
T2 construct: range 3-40 (Aβ numbering); Synthetic peptide (Bachem/Anaspec), verified monomeric by SEC; also called monomeric AβpE3-40
Description: (§3) For binding to Aβ1-40 and AβpE11-40, the positive control 4G8 (Covance #SIG-39320, epitope: amino acids 17-24 of Aβ) was included. The recombinant antibodies were incubated at a fixed concentration (0.05 μg/ml) with titrating concentrations of the different Aβ antigens. After incubation for 45 min at 900 rpm to reach equilibrium, the antibody-Aβ samples were added to a blocked and washed ELISA plate with an AβpE3-40 coat (0.5 μM). The samples were incubated on the plate for 25 min without shaking followed by washing, incubation with detection antibody, another washing step and finally incubation with alkaline phosphatase substrate.

[3] = target: T3, AβpE11-40 monomer (UniProt P05067 682-711, pyroglutamate at position 11 (N-terminal residue)); assay: as above
T3 construct: range 11-40 (Aβ numbering)
T3 peptide (looked up): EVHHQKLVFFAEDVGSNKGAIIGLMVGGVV
Description: as §3

[4] = target: T1, AβpE3-42 protofibrils; assay: as above
Description: as §3

[5] = target: T4, Aβ1-40 monomer (UniProt P05067 672-711); assay: as above
T4 construct: range 1-40 (Aβ numbering)
Description: as §3

[6] = target: T5, Aβ2-28 monomer (UniProt P05067 673-699); assay: SPR, antibody immobilised
T5 construct: range 2-28 (Aβ numbering)
Description: (§4) Single cycle kinetics with the antibodies immobilized on a CM5 chip was used to measure the binding of the antibodies to the different monomers (AβpE3-40, AβpE11-28, Aβ1-28, Aβ2-28, Aβ3-28 and Aβ4-28). For the measurements, 5 μg/ml of analyte antibody was immobilized on the chip. […] Regeneration of the surface between cycles was done by injecting 30 μl 3 M MgCl₂. The binding data was fitted to a 1:1 interaction model.
as §2

[7] = target: T6, AβpE11-28 monomer (UniProt P05067 682-699, pyroglutamate at position 11 (N-terminal residue)); assay: SPR, antibody immobilised
T6 construct: range 11-28 (Aβ numbering)
T6 peptide (looked up): EVHHQKLVFFAEDVGSNK
Description: as §4, §2

[8] = target: T7, Aβ1-42 monomer (UniProt P05067 672-713); assay: ELISA: Aβ monomer captured on a polyclonal anti-Aβ42 coat, hybridoma supernatant diluted 1/243, anti-mouse IgG-HRP
T7 construct: range 1-42 (Aβ numbering)

[9] = target: T8, Aβ2-42 monomer (UniProt P05067 673-713); assay: as above
T8 construct: range 2-42 (Aβ numbering)

[10] = target: T9, Aβ4-28 monomer (UniProt P05067 675-699); assay: SPR, antibody immobilised, monomer injected, 1:1 fit
T9 construct: range 4-28 (Aβ numbering)
Description: as §4, §2

[11] = target: T2, AβpE3-40 monomer; assay: as above
Description: as §4, §2

[12] = target: T10, Aβ3-28 monomer (UniProt P05067 674-699); assay: as above
T10 construct: range 3-28 (Aβ numbering)
Description: as §4, §2

[13] = target: T11, Aβ1-28 monomer (UniProt P05067 672-699); assay: SPR, antibody immobilised
T11 construct: range 1-28 (Aβ numbering)
Description: Affinity and specificity evaluation and KD determination by surface plasmon resonance: Binding interactions between antigens and antibodies were evaluated by SPR using a Biacore 8K instrument (Cytiva) according to standard procedures. […] Additionally, the specificity towards different N-truncated forms of Aβ (Aβ2-28, Aβ3-28, Aβ4-28 and AβpE11-28 monomers) was evaluated.
as §4, §2

[14] = target: T1, AβpE3-42 protofibrils; assay: SPR, protofibrils immobilised, antibody injected, 1:1 fit, apparent; binding to AβpE3-42 protofibrils (not monomer); KD in pM
Description: as §1, §2

[15] = target: T12, hTfR1 (recombinant, construct not specified) (human, UniProt P02786 89-760, limits assumed); assay: BLI: hTfR1 captured on biotinylated human holo-transferrin on streptavidin sensors, 15 nM Fab in solution, 120 s association, 300 s dissociation
T12 construct: also called biotinylated hTfR1
Description: A more detailed binding analysis by BLI was performed on purified, selected antibodies. […] For example, the BLI instrument Octet Red384 was used to measure binding between immobilized TfR1 and the tested Fab fragments in solution. […] Antibody binding to TfR1 was measured during an association phase of 120 s and a dissociation phase of 300 s.

[16] = target: T12, hTfR1 (recombinant, construct not …); assay: ELISA on coated hTfR1, biotinylated scFv detected with streptavidin-HRP, after 48 h in mouse serum or PBS at 37°C or 4°C
Description: After 48 h incubation, binding of the scFv to hTfR1 was evaluated by ELISA. […] The reaction was stopped by 1:1 addition of 0.5 M sulfuric acid (#35354-1L, Honeywell). Optical density at 450 nm was obtained using a microplate reader (Spark, Tecan) and the collected data was plotted using GraphPad Prism software (GraphPad Software Inc).

[17] = target: T12, hTfR1 (recombinant, construct not …); assay: indirect ELISA on an hTfR1 coat, detection with anti-mouse IgG F(ab')2, normalised A450 against log antibody concentration in pM
[18] = target: T13, truncated hTfR1 of SEQ ID NO:122 (human, UniProt P02786 122-760); assay: SPR, TfR1 amine-coupled, Fab injected, 1:1 fit
T13 construct: also called human TfR1; Human TfR1
Description: (§5) The interaction was measured using the single cycle kinetics method with a contact time of 120 s at a flow rate of […] followed by a dissociation time of 600 s. Regeneration of the surface between cycles was done by injecting 3M MgCl₂. The binding data were fitted to a 1:1 interaction model. The Fabs were diluted in HBS-EP+ (Cytiva, #BR100669). Experiments were performed at 25° C.

[19] = target: T14, truncated cTfR1 of SEQ ID NO:123 (cynomolgus monkey, UniProt Q5RDH6 122-760 (Pongo abelii entry)); assay: SPR, TfR1 amine-coupled, Fab injected, 1:1 fit
T14 construct: also called cynomolgus TfR1
T14 chain: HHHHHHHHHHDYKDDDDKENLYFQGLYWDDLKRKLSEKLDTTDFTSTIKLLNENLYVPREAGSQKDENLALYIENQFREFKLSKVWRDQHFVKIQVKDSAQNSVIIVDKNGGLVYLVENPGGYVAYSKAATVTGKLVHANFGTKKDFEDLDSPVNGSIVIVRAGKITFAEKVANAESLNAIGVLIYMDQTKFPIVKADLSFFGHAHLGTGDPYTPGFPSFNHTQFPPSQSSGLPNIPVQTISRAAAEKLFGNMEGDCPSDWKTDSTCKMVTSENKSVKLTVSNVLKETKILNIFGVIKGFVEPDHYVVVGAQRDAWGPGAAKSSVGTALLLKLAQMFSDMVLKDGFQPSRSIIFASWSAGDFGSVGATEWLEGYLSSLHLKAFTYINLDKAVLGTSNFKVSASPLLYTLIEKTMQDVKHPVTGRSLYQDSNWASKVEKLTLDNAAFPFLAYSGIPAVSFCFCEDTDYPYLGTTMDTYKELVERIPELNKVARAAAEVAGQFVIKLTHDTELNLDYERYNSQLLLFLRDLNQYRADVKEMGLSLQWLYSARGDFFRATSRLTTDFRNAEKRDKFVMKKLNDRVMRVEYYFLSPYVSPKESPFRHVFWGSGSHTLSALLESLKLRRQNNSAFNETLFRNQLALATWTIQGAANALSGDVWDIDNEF
Description: as §5

T1 sequence (P05067 674-713): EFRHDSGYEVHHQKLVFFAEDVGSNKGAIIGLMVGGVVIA
T10 sequence (P05067 674-699): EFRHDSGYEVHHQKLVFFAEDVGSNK
T9 sequence (P05067 675-699): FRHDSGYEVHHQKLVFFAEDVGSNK
T8 sequence (P05067 673-713): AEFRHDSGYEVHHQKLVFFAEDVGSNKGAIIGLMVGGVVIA
T7 sequence (P05067 672-713): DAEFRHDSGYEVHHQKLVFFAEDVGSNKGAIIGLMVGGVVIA
T5 sequence (P05067 673-699): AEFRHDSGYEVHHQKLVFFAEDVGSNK
T11 sequence (P05067 672-699): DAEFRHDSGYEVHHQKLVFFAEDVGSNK

B1: Pyr12.2 (antibody, V domains shown)
VH: EVQLQQSGPELVKPGTSIKMSCKASGYSFTGFTMNWVKQSHGKNLEWIGLINPYNGVTTYNQKFKGKATITVDKSSRTAYMELLSLTYEDSAVYYCTREGNWEGVYWGQGTPVTVSA
VL: EVVLTQTPLTLSVTIGQSASISCKSSQSLLDSNGKTYLHWFLLRPGQSPKRLIYLVSILDSGVPDRFTGSGSGTDFTLKISRVEAEDLGIYYCVQGTHFPFTFGSGTKLEIKR
notes: Murine anti-AβpE3 antibody; also called recombinant antibody Pyr12.2; hybridoma clone Pyr12.2
**Q.** How did the koff [1] turn out when B1 was run?
**A.** The koff was 3.31e-06 s⁻¹.

**Q.** And the kon [1]?
**A.** Its kon is 63100 M⁻¹ s⁻¹.

**Q.** And the IC50 [2]?
**A.** The IC50 was 1.52 nM.

**Q.** What about the IC50 [3] of the same binder?
**A.** Its IC50 is over 5000 nM.

**Q.** And the IC50 [4]?
**A.** Its IC50 is 8.43 nM.

**Q.** And the IC50 [5]?
**A.** The IC50 was over 5000 nM.

**Q.** Does B1 bind [6]?
**A.** Result: no binding (tested: 2500 nM)

**Q.** Does B1 bind [7]?
**A.** Result: no binding (tested: 2500 nM)

**Q.** Does B1 bind [8]?
**A.** Result: no binding

**Q.** Does B1 bind [9]?
**A.** Result: no binding

**Q.** What about the Kd [10] of the same binder?
**A.** The Kd was 6760 nM.

**Q.** And the koff [10]?
**A.** Its koff is 0.481 s⁻¹.

**Q.** What about the kon [10] of the same binder?
**A.** The kon was 78200 M⁻¹ s⁻¹.

**Q.** What about the Kd [11] of the same binder?
**A.** Its Kd is 0.57 nM.

**Q.** And the koff [11]?
**A.** Its koff is 4.12e-05 s⁻¹.

**Q.** And the kon [11]?
**A.** Its kon is 71800 M⁻¹ s⁻¹.

**Q.** What about the Kd [12] of the same binder?
**A.** Its Kd is 42.6 nM.

**Q.** What about the koff [12] of the same binder?
**A.** The koff was 5.77e-05 s⁻¹.

**Q.** And the kon [12]?
**A.** The kon was 1750 M⁻¹ s⁻¹.

**Q.** Does B1 bind [13]?
**A.** Result: no binding (tested: 2500 nM)

**Q.** And the Kd [14]?
**A.** The Kd was 0.0536 nM.

B2: 37D10-Fab (Fab, V domains shown)
VH: QVQLQQSGAELVRPGTSVKISCKASGYAFTNYWLGWVKQRPGHGLEWIGDIFPGSDNTYYNEKFKGKATLTADKSSSTAYMQLSSLASEDSAVYFCARSGNFYAMDYWGQGTSVTVSS
VL: ENVLTQSPAIMSASPGEKVTMTCSASSSVNYMNWYQQKSSTFPKLWIYDTSKLASGVPGRFSGSGSGKFYSLTISSMEAEDVATYYCFQGSGYPFTFGSGTKLEIK
notes: Fab of murine 37D10
**Q.** Does B2 bind [15]?
**A.** Result: binds

B3: h26D3wt_DS, VL-first (His6 and Avi tags, biotinylated) (scFv)
scFv: DIQMTQSPSSVSASVGDRVTITCKSSQSLLYSTNQKNYLAWYQQKPGKAPKLLIYWASTRESGVPSRFSGSGSGTDFTLTISSLQPEDFATYYCQQYFIYPRTFGCGTKVEIKGGGGSGGGGSGGGGSGGGGSEVQLVQSGAEVKKPGSSVKVSCKASGYIFTDYNMDWVRQAPGQCLEWIGDINPDYDTTSYNEKFKGRATLTVDKSTSTAYMELSSLRSEDTAVYYCARGGYSGSSYYHPMDYWGQGTLVTVSS
modifications: biotin on the Avi tag (site directed in vivo biotinylation)
**Q.** Which “EC50 (read off the curve)” value [16] does the source give for B3 here?
**A.** The value was about 0.02 µg/mL.

B4: 26D3-Fab (Fab, V domains shown)
VH: EVQLQQFGVELVKPGASVKISCKASGYIFTDYNMDWVKQSHGKSLEWIGDINPDYDTTSYNEKFKGKATLTVDKSSSTAYMELRSLTSEDTAVYYCARGGYSGSSYYHPMDYWGQGTSVTVSS
VL: DIVMSQSPSSLAVSVGEKITMSCKSSQSLLYSTNQKNYLAWYQQKPGQSPELLIYWASTRESGVPDRFTGSGSGTDFTLTISNVRAEDLAVYYCQQYFIYPRTFGGGTKLEIK
notes: Fab of murine 26D3; also called murine 26D3 Fab
**Q.** What does the source list for B4?
**A.** EC50 (read off the curve) [17]: ~0.06 nM; Kd [18]: 3.6 nM; Kd [19]: 10 nM

From US20250388664A1 (BIOARCTIC, published 2025)
